Test results published in patent publication US20120322725A1.

What was measured:
Experiment in all cases: cell-based or functional assay
glucagon receptor = glucagon receptor (UniProt P47871)
GIP receptor = target: T1, GIP receptor (UniProt P48546)
T1 sequence (looked up): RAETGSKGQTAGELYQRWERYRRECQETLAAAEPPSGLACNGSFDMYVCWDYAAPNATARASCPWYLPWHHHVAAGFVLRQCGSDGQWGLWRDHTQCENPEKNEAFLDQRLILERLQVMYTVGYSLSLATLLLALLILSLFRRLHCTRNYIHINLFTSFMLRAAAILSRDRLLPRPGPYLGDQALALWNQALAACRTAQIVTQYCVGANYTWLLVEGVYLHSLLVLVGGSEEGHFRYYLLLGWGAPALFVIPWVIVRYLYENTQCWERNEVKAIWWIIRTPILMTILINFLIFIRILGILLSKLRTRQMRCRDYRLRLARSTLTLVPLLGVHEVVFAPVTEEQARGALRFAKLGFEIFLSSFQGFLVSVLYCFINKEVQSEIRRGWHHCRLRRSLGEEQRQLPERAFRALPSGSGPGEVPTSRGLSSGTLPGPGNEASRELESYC

GLP-1 receptor = GLP-1 receptor (UniProt P43220)
GLP-1 receptor, sequence (P43220 24-463 limits assumed): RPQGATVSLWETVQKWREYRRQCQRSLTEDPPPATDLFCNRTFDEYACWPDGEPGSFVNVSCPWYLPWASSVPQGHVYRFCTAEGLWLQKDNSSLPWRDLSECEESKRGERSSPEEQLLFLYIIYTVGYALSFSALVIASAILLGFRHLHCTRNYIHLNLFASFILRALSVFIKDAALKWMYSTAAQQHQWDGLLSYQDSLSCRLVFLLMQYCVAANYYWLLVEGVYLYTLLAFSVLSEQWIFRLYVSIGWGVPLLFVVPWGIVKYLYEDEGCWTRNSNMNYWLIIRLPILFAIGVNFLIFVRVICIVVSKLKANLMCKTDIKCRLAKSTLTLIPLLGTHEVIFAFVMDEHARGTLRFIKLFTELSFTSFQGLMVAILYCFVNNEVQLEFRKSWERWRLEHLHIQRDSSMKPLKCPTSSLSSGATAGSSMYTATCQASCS

glucagon receptor, sequence (P47871 26-477 limits assumed): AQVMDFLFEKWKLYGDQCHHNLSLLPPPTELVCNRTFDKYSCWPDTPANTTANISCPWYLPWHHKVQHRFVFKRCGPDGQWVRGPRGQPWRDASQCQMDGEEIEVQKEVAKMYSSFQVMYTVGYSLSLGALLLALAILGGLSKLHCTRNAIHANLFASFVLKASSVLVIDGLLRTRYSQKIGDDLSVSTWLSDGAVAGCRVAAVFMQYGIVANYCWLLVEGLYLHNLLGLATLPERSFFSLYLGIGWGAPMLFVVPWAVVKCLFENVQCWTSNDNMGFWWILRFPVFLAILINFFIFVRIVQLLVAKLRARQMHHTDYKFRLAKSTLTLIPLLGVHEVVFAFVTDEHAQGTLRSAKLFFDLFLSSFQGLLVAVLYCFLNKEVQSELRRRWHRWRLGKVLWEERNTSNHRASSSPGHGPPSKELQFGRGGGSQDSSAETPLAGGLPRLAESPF

IC50(nM) (cAMP, inhibit 0.2 mM Glucagon) (glucagon receptor)	Substance	GIP (EC50) (GIP receptor)	GLP-1 (EC50) (GLP-1 receptor)	Glucagon IC50 (glucagon receptor)
14800 nM	[d-Cys5(20kDaPEG), E9]Glucagon(aa5-29)-NH2 (peptide)	–	–	–
–	HAibEGT-PLA6, (E16K20), C24, cex, K40(rErEC16) G(1-40)/A1, Aib2, E3, K40 GIP(1-40)	0.379 nM	0.363 nM	–
–	HAibEGT-PLA6, K10(rErEC16), (E16K20), C24 G(1-29)/A1, Aib2, E3, K40 GIP(1-40)	0.347 nM	0.813 nM	–
–	PLA6, (E16K20), C24 G(6-29)/A1, Aib2, E3, K40 GIP(1-40)	1.29 nM	367 nM	40.1 nM
–	HAibEGT-PLA6, (E16K20), cex, K40(rErEC16) G(1-40) (peptide)	–	0.76 nM	150 nM
–	A1, Aib2, E3 GIP(1-40) (peptide)	3.89 nM	–	–
–	HAibEGT-PLA6, (E16K20) G(1-29) (peptide)	–	3.6 nM	12 nM
–	HAibEGT-PLA6, (E16K20), C24 G(1-29)/A1, Aib2, E3, K40 GIP(1-40)	1.58 nM	11.7 nM	–
–	HAibEGT-PLA6, K10(rErEC16), (E16K20) G(1-29) (peptide)	–	0.19 nM	14.3 nM
